Drawing on patent publication EP3205670, this text covers IC50 and Kd for three molecules.

For assay [1], the target named is T1, hRSV F protein (FTM-NN) (hRSV, UniProt P03420). The assay is described as follows: competition, AlphaScreen. In general terms: Alpha assays give light when donor and acceptor beads are brought close together.
For assay [2], the target named is T1, hRSV F protein (FTM-NN). The assay is described as follows: SPR. For orientation: In SPR one partner is held on a chip, and binding of the other changes the refractive index at the surface.

T1 sequence (P03420 26-524): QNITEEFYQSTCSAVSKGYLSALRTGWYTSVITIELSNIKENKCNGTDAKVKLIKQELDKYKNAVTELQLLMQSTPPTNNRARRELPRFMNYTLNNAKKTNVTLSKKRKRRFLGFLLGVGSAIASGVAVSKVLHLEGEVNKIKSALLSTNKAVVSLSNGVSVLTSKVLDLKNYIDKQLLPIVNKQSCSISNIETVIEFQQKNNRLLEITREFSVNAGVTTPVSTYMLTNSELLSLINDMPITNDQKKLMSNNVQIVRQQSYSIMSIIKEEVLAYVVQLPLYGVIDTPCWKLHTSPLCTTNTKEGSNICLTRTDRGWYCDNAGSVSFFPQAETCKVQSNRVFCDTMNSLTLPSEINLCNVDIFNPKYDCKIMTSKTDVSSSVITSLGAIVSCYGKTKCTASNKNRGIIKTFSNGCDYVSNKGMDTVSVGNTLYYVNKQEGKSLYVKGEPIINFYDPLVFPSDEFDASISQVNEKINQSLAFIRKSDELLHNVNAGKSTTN

B1: Numax Fab (antibody, V domains shown)
VH: QVTLRESGPALVKPTQTLTLTCTFSGFSLSTAGMSVGWIRQPPGKALEWLADIWWDDKKHYNPSLKDRLTISKDTSKNQVVLKVTNMDPADTATYYCARDMIFNFYFDVWGQGTTVTVSS
VL: DIQMTQSPSTLSASVGDRVTITCSASSRVGYMHWYQQKPGKAPKLLIYDTSKLASGVPSRFSGSGSGTEFTLTISSLQPDDFATYYCFQGSGYPFTFGGGTKVEIK
The IC50 is the point on the concentration scale where inhibition reaches its midpoint. A high value points to weaker potency. The molecule B1 gave an IC50 with hRSV F protein (FTM-NN) [1] of 0.086 nM.

B2: Synagis Fab (antibody, V domains shown)
VH: QVTLRESGPALVKPTQTLTLTCTFSGFSLSTSGMSVGWIRQPPGKALEWLADIWWDDKKDYNPSLKSRLTISKDTSKNQVVLKVTNMDPADTATYYCARSMITNWYFDVWGAGTTVTVSS
VL: DIQMTQSPSTLSASVGDRVTITCKCQLSVGYMHWYQQKPGKAPKLLIYDTSKLASGVPSRFSGSGSGTEFTLTISSLQPDDFATYYCFQGSGYPFTFGGGTKLEIK
Regarding B2, the IC50 with hRSV F protein (FTM-NN) [1] is 0.597 nM.

B3: Synagis (antibody, V domains shown)
VH: QVTLRESGPALVKPTQTLTLTCTFSGFSLSTSGMSVGWIRQPPGKALEWLADIWWDDKKDYNPSLKSRLTISKDTSKNQVVLKVTNMDPADTATYYCARSMITNWYFDVWGAGTTVTVSS
VL: DIQMTQSPSTLSASVGDRVTITCKCQLSVGYMHWYQQKPGKAPKLLIYDTSKLASGVPSRFSGSGSGTEFTLTISSLQPDDFATYYCFQGSGYPFTFGGGTKLEIK
By Kd is commonly meant the concentration at which binding is half-saturated. Lower therefore signals higher affinity. Take B3: in the assay with hRSV F protein (FTM-NN) [2], binding was put at a Kd of 0.64 nM.
